Laboratory results: publication PMC3094505
Where two headings read alike, the source gives them in different places.

Assays:
[1] = molecular target: Fluoresceinated Nav1.2IQp, peptide of residues 1901-1927 of the Nav1.2 alpha-subunit; test: fluorescence polarisation
[2] = molecular target: Fluoresceinated Nav1.2IQp, peptide of residues 1901-1927 of the Nav1.2 alpha-subunit; test: fluorescence polarisation; remark: listed apart in the source

Paramecium calmodulin N-domain (residues 1-80) (from UniProt P07463 2-81) (domain or fragment)
Kd [1]: 1.64 µM | Kd [2]: 70.8 µM
